T1: CD40 on murine splenic B cells (mouse, UniProt P27512 20-289)
T1 sequence (looked up): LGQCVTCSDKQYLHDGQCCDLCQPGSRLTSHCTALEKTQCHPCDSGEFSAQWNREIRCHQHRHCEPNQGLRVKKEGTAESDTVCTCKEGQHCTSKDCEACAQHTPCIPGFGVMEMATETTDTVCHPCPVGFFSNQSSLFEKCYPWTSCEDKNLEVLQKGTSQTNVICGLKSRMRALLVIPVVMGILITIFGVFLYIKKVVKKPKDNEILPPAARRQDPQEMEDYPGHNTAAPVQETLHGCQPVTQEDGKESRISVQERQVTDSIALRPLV

B1: soluble trimeric CD154 (tCD154) (ligand, human;mouse, UniProt P35247 223-257, looked up)
chain: DVASLRQQVEALQGQVQHLQAAFSQYKKVELFPNGLDKVEEEVNLHEDFVFIKKLKRCNKGEGSLSLLNCEEMRRQFEDLVKDITLNKEEKKENSFEMQRGDEDPQIAAHVVSEANSNAASVLQWAKKGYYTMKSNLVMLENGKQLTVKREGLYYVYTQVTFCSNREPSSQRPFIVGLWLKPSSGSERILLKAANTHSSSQLCEQQSVHLGGVFELQAGASVFVNVTEASQVIHRVGFSSFGLLKL
notes: range 223-257;range 50-260; Expressed in CHO-K1 with the rat CD4 leader (secretion signal, left out here); Non-covalent homotrimer, apparent mass ~100 kDa by size exclusion; also called trimeric form of CD154
B2: murine CD40-human Fc fusion protein (Fc fusion, mouse, UniProt P27512 20-193, looked up)
chain: LGQCVTCSDKQYLHDGQCCDLCQPGSRLTSHCTALEKTQCHPCDSGEFSAQWNREIRCHQHRHCEPNQGLRVKKEGTAESDTVCTCKEGQHCTSKDCEACAQHTPCIPGFGVMEMATETTDTVCHPCPVGFFSNQSSLFEKCYPWTSCEDKNLEVLQKGTSQTNVICGLKSRMR
notes: captured on immobilised anti-human Fc mAb in the BIAcore assay; also called CD40-Fc; not shown: human immunoglobulin Fc

Experiments:
[1] = target: B2; assay: BIAcore; CD40-Fc captured on anti-human Fc mAb, SP-D-CD154 injected
[2] = target: B2; assay: BIAcore; CD40-Fc captured on anti-human Fc mAb, SP-D-CD154 injected at 31.3-250 nM; apparent affinity
[3] = target: T1, CD40 on murine splenic B cells; assay: cell-based or functional assay
[4] = target: B2; assay: BIAcore; dissociation half-time from captured CD40-Fc
Description: (§1) The lower activity of tCD154 when compared with SP-D-CD154 could be the result of its relatively low affinity for CD40. To address this question the inventors analysed the affinity and kinetics of the interaction between tCD154 or SP-D-CD154 and CD40 using the BIAcore™ biosensor, which measures protein-protein interaction in real time. A murine anti-human Fc mAb was covalently coupled to the dextran matrix, and either tCD154 or SPD-CD154 was then injected over this mAb in order to determine the level of non-specific binding. Specific binding was determined by first injecting murine CD40-human Fc fusion protein which bound to the immobilised anti-human Fc mAb, and then injecting (31.3-250 nM) tCD154 or SPD-CD154 (FIG. 6). Co-injection of the anti-CD154 mAb MR1 and tCD154 or SP-D-CD154 completely abolished the binding of tCD154 or SP-D-CD154 to CD40 (data not shown). […] SP-D-CD154 can potentially bind to twelve CD40 molecules, compared to three molecules with tCD154 [9], implying that the extent of receptor oligomerisation may influence the signals generated by CD40. Within the X-shaped SP-D molecule, the adjacent arms are separated by a distance of either ˜20 nm or ˜90 nm (FIG. 1A). Thus if all four arms of SP-D-CD154 engage cell surface-expressed CD40, two clusters are likely to form each with six closely associated CD40 molecules.

[5] = target: B1; assay: BIAcore; CD40-Fc captured on anti-human Fc mAb, tCD154 injected
Description: as §1

[6] = target: B1; assay: BIAcore; CD40-Fc captured on anti-human Fc mAb, tCD154 injected at 31.3-250 nM; apparent affinity
Description: as §1

Row | Molecule | koff [1] [s⁻¹] | Kd [2] [nM] | fold increase in the level of CD86 on B cells against untreated cells (5 nM, 24 h) [3] [fold] | fold increase in the level of ICAM-1 on B cells against untreated cells (5 nM, 24 h) [3] [fold] | in vitro B cell proliferation assay [3] [µg/mL] | mean forward scatter of B cells (size and activation status) [3] | proliferation of murine splenic B cells ([3H] thymidine incorporation) [3] [fold] | t1/2 [4] [h] | koff [5] [s⁻¹] | Kd [6] [nM]
1 | SP-D-CD154 dodecameric fusion protein between lung surfactant protein-D and CD154 (from UniProt P35247 1-257; P27548 50-260) (ligand) | 0.00014 | 1.3 | 3.6 | 3.8 | 2 | 409 | 8 | 1.38 | – | –
2 | B1 | – | – | 1.4 | 2 | – | – | – | ~1.07 | – | –
3 | B2 | – | – | – | – | – | – | – | – | 0.00018 | 2

Reference: patent US20040047873A1 (published 2004)
